Experimental data taken from article PMC4116807 (Biochimica et biophysica acta, 2014).

Target: the molecule itself
Experiment: AUC

B1: periplasmic sensor domain of the histidine kinase CusS (CusS 39-187) (domain or fragment, Escherichia coli W3110)
chain: VKVHFAEQDINDLKEISATLERVLNHPDETQARRLMTLEDIVSGYSNVLISLADSQGKTVYHSPGAPDIREFTRDAIPDKDAQGGEVYLLSGPTMMMPGHGHGHMEHSNWRMINLPVGPLVDGKPIYTLYIALSIDFHLHYINDLMNKLEGSS
stoichiometry N: 2
